In paper PMC5655127:

Molecular target: KpBest^ΔC11 L177T (Klebsiella pneumoniae)
Assay: crystal structure; KpBest^ΔC11 L177T, sitting-drop vapor diffusion at 20°C, 0.05 M zinc acetate, 6% ethylene glycol, 0.1 M sodium cacodylate pH 6.0, 6.6% PEG 8000; solved to 3.1 Å by molecular replacement with 4WD8

KpBest^ΔC11 L177T (natural protein)
stoichiometry N: 5
